Like-named read-outs stand apart in the source and are kept apart here.
Legend:
Experiment in all cases: ITC
[1] = target: human U2A′ protein, truncated form that included the first 180 amino acids (LRR domain) (human) (UniProt P09661)
[2] = target: human U2A′ protein, truncated form that included the first 180 amino acids (LRR domain) (human) (UniProt P09661); remark: listed apart in the source
[3] = target: human U2A′ protein, truncated form that included the first 180 amino acids (LRR domain) (human) (UniProt P09661); remark: listed apart in the source

Sequence of human U2A′ protein, truncated form that included the first 180 amino acids (LRR domain) (human) (P09661 1-180): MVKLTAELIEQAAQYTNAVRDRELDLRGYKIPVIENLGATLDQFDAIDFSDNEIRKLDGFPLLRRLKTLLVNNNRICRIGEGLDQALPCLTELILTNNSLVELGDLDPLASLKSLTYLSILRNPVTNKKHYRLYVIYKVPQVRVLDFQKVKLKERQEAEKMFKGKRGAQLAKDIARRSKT
Sequence of full-length human U1A protein (P09012 whole entry): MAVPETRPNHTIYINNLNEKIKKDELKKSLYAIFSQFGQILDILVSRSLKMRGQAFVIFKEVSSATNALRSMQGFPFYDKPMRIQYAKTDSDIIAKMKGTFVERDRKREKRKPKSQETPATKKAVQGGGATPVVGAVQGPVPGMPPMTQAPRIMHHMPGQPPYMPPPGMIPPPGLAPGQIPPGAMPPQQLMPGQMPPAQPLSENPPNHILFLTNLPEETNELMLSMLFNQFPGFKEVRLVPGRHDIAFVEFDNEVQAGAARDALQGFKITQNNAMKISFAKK

dH [1]: 2.9 kcal/mol | dH [2]: 2 kcal/mol | dH [3]: 2.8 kcal/mol
Substance: full-length human U1A protein (from UniProt P09012 1-282) (natural protein)
